B1: TFEB-EGFP [not stated] / Flag-TNKS1 [not stated] (parent complex)
chain 1: MASRIGLRMQLMREQAQQEEQRERMQQQAVMHYMQQQQQQQQQQLGGPPTPAINTPVHFQSPPPVPGEVLKVQSYLENPTSYHLQQSQHQKVREYLSETYGNKFAAHISPAQGSPKPPPAASPGVRAGHVLSSSAGNSAPNSPMAMLHIGSNPERELDDVIDNIMRLDDVLGYINPEMQMPNTLPLSSSHLNVYSSDPQVTASLVGVTSSSCPADLTQKRELTDAESRALAKERQKKDNHNLIERRRRFNINDRIKELGMLIPKANDLDVRWNKGTILKASVDYIRRMQKDLQKSRELENHSRRLEMTNKQLWLRIQELEMQARVHGLPTTSPSGMNMAELAQQVVKQELPSEEGPGEALMLGAEVPDPEPLPALPPQAPLPLPTQPPSPFHHLDFSHSLSFGGREDEGPPGYPEPLAPGHGSPFPSLSKKDLDLMLLDDSLLPLASDPLLSTMSPEASKASSRRSSFSMEEGDVL
chain 2: MAASRRSQHHHHHHQQQLQPAPGASAPPPPPPPPLSPGLAPGTTPASPTASGLAPFASPRHGLALPEGDGSRDPPDRPRSPDPVDGTSCCSTTSTICTVAAAPVVPAVSTSSAAGVAPNPAGSGSNNSPSSSSSPTSSSSSSPSSPGSSLAESPEAAGVSSTAPLGPGAAGPGTGVPAVSGALRELLEACRNGDVSRVKRLVDAANVNAKDMAGRKSSPLHFAAGFGRKDVVEHLLQMGANVHARDDGGLIPLHNACSFGHAEVVSLLLCQGADPNARDNWNYTPLHEAAIKGKIDVCIVLLQHGADPNIRNTDGKSALDLADPSAKAVLTGEYKKDELLEAARSGNEEKLMALLTPLNVNCHASDGRKSTPLHLAAGYNRVRIVQLLLQHGADVHAKDKGGLVPLHNACSYGHYEVTELLLKHGACVNAMDLWQFTPLHEAASKNRVEVCSLLLSHGADPTLVNCHGKSAVDMAPTPELRERLTYEFKGHSLLQAAREADLAKVKKTLALEIINFKQPQSHETALHCAVASLHPKRKQVTELLLRKGANVNEKNKDFMTPLHVAAERAHNDVMEVLHKHGAKMNALDTLGQTALHRAALAGHLQTCRLLLSYGSDPSIISLQGFTAAQMGNEAVQQILSESTPIRTSDVDYRLLEASKAGDLETVKQLCSSQNVNCRDLEGRHSTPLHFAAGYNRVSVVEYLLHHGADVHAKDKGGLVPLHNACSYGHYEVAELLVRHGASVNVADLWKFTPLHEAAAKGKYEICKLLLKHGADPTKKNRDGNTPLDLVKEGDTDIQDLLRGDAALLDAAKKGCLARVQKLCTPENINCRDTQGRNSTPLHLAAGYNNLEVAEYLLEHGADVNAQDKGGLIPLHNAASYGHVDIAALLIKYNTCVNATDKWAFTPLHEAAQKGRTQLCALLLAHGADPTMKNQEGQTPLDLATADDIRALLIDAMPPEALPTCFKPQATVVSASLISPASTPSCLSAASSIDNLTGPLAELAVGGASNAGDGAAGTERKEGEVAGLDMNISQFLKSLGLEHLRDIFETEQITLDVLADMGHEELKEIGINAYGHRHKLIKGVERLLGGQQGTNPYLTFHCVNQGTILLDLAPEDKEYQSVEEEMQSTIREHRDGGNAGGIFNRYNVIRIQKVVNKKLRERFCHRQKEVSEENHNHHNERMLFHGSPFINAIIHKGFDERHAYIGGMFGAGIYFAENSSKSNQYVYGIGGGTGCPTHKDRSCYICHRQMLFCRVTLGKSFLQFSTMKMAHAPPGHHSVIGRPSVNGLAYAEYVIYRGEQAYPEYLITYQIMKPEAPSQTATAAEQKT

Variants of: B1
Experiment: co-immunoprecipitation (anti-GFP IP, immunoblot quantification); HEK293T cells; three independent immunoblots; parent: 1; read off a plot

Row | Variant | ratio to parent
1 | chain 1 V65D, chain 1 G67V, chain 1 E68A | ~0.4
